B1: Next to BRCA1 gene 1 protein (Homo sapiens), Q14596 (parent)
chain: MEPQVTLNVTFKNEIQSFLVSDPENTTWADIEAMVKVSFDLNTIQIKYLDEENEEVSINSQGEYEEALKMAVKQGNQLQMQVHEGHHVVDEAPPPVVGAKRLAARAGKKPLAHYSSLVRVLGSDMKTPEDPAVQSFPLVPCDTDQPQDKPPDWFTSYLETFREQVVNETVEKLEQKLHEKLVLQNPSLGSCPSEVSMPTSEETLFLPENQFSWHIACNNCQRRIVGVRYQCSLCPSYNICEDCEAGPYGHDTNHVLLKLRRPVVGSSEPFCHSKYSTPRLPAALEQVRLQKQVDKNFLKAEKQRLRAEKKQRKAEVKELKKQLKLHRKIHLWNSIHGLQSPKSPLGRPESLLQSNTLMLPLQPCTSVMPMLSAAFVDENLPDGTHLQPGTKFIKHWRMKNTGNVKWSADTKLKFMWGNLTLASTEKKDVLVPCLKAGHVGVVSVEFIAPALEGTYTSHWRLSHKGQQFGPRVWCSIIVDPFPSEESPDNIEKGMISSSKTDDLTCQQEETFLLAKEERQLGEVTEQTEGTAACIPQKAKNVASERELYIPSVDLLTAQDLLSFELLDINIVQELERVPHNTPVDVTPCMSPLPHDSPLIEKPGLGQIEEENEGAGFKALPDSMVSVKRKAENIASVEEAEEDLSGTQFVCETVIRSLTLDAAPDHNPPCRQKSLQMTFALPEGPLGNEKEEIIHIAEEEAVMEEEEDEEDEEEEDELKDEVQSQSSASSEDYIIILPECFDTSRPLGDSMYSSALSQPGLERGAEGKPGVEAGQEPAEAGERLPGGENQPQEHSISDILTTSQTLETVPLIPEVVELPPSLPRSSPCVHHHGSPGVDLPVTIPEVSSVPDQIRGEPRGSSGLVNSRQKSYDHSRHHHGSSIAGGLVKGALSVAASAYKALFAGPPVTAQPIISEDQTAALMAHLFEMGFCDRQLNLRLLKKHNYNILQVVTELLQLNNNDWYSQRY
B2: Next to BRCA1 gene 1 protein (Homo sapiens), Q14596 (parent)
chain: B1 chain
partner: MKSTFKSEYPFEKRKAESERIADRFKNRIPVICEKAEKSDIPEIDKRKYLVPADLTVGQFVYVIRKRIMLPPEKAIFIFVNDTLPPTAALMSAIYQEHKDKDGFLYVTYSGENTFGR

What was measured:
[1] = variants of: B1; conditions: with gbrap_human GABARAP
[2] = variants of: B1; conditions: with gbrl2_human GABARAPL2, P60520
gbrl2_human GABARAPL2, P60520, sequence (P60520 whole entry): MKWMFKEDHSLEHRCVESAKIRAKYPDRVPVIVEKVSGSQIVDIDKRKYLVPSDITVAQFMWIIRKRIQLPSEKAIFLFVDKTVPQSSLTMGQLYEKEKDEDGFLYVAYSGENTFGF

[3] = variants of: B1; conditions: with mlp3b_human MAP1LC3B
atg8_yeast ATG8, P38182 = variants of: B2; conditions: with atg8_yeast ATG8, P38182

Row | Variant | effect of a mutation on the interaction [1] | effect of a mutation on the interaction [2] | effect of a mutation on the interaction [3] | effect of a mutation on the interaction (atg8_yeast ATG8, P38182)
1 | Y732A | decreasing interaction | decreasing interaction | decreasing interaction | –
2 | Y732A | – | – | – | decreasing interaction

Reference: IntAct's records for PubMed 19250911
